Laboratory results reported in patent US20240165282A1, “CONFORMATIONAL CONSTRAINED SOMATOSTATIN RECEPTOR 3 PEPTIDE LIGANDS AND THEIR CONJUGATES AND USES THEREOF” (STARGET PHARMA LTD., priority 2021, published 2024).
*1 amine or outer side, *2 acyl side, *3 side chain or, on linkers, in order; H or OH if unused. Bridges are numbered along the chain shown (N, C = ends). [ ]: non-standard residue; d: D form. The star is where a group is joined. DOTA = O=C(O)CN1CCN(CC(=O)O)CCN(CC(=O)*)CCN(CC(=O)O)CC1; N(2-mercaptoethyl)Gly = O=C(CN(CCS[*:3])[*:1])[*:2]

Tests used:
[1] = target: (CR)R-RAMP3 (human) (UniProt P30988); assay: cell-based or functional assay
[2] = target: F2RL3 (human) (UniProt Q96RI0); assay: cell-based or functional assay
[3] = target: AVPR1A (human) (UniProt P37288); assay: cell-based or functional assay
[4] = target: CXCR2 (human) (UniProt P25025); assay: cell-based or functional assay
Chain of CXCR2 (human) (P25025 whole entry): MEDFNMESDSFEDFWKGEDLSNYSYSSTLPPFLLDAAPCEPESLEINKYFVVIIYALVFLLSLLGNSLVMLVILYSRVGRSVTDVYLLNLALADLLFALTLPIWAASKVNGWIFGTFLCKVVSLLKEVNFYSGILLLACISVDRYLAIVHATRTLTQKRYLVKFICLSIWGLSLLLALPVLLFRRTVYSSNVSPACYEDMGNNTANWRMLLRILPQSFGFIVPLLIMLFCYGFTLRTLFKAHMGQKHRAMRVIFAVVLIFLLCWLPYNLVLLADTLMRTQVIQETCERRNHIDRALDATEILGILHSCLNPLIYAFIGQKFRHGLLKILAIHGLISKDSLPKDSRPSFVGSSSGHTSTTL

[5] = target: NPFFR1 (human) (UniProt Q9GZQ6); assay: cell-based or functional assay
Chain of NPFFR1 (human) (Q9GZQ6 whole entry): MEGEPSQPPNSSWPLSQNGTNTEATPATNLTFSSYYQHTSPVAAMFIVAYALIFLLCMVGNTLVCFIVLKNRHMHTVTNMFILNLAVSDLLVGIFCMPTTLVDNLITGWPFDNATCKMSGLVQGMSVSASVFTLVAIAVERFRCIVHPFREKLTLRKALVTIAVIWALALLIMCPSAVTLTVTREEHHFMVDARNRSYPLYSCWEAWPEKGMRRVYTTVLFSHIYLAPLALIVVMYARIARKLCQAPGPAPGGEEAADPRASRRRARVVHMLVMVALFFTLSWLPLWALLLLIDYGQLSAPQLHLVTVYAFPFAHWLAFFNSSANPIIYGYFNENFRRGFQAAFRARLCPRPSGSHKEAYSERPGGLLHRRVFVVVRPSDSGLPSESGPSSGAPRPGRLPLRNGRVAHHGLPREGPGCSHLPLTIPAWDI

[6] = target: MTNR1A (human) (UniProt P48039); assay: cell-based or functional assay
[7] = target: SCTR (human) (UniProt P47872); assay: cell-based or functional assay
[8] = target: GIPR (human) (UniProt P48546); assay: cell-based or functional assay
Chain of GIPR (human) (P48546 22-466): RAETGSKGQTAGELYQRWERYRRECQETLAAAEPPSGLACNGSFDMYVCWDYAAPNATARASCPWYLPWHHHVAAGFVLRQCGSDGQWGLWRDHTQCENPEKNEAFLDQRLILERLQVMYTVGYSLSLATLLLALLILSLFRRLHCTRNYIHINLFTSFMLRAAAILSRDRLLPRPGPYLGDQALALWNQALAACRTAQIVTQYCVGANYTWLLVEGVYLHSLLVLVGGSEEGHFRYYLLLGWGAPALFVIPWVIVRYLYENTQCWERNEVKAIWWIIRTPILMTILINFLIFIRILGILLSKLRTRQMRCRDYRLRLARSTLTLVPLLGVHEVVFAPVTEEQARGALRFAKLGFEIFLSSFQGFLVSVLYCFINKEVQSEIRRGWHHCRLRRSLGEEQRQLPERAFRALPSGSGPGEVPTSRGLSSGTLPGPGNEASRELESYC

[9] = target: NPY1R (human) (UniProt P25929); assay: cell-based or functional assay
Chain of NPY1R (human) (P25929 whole entry): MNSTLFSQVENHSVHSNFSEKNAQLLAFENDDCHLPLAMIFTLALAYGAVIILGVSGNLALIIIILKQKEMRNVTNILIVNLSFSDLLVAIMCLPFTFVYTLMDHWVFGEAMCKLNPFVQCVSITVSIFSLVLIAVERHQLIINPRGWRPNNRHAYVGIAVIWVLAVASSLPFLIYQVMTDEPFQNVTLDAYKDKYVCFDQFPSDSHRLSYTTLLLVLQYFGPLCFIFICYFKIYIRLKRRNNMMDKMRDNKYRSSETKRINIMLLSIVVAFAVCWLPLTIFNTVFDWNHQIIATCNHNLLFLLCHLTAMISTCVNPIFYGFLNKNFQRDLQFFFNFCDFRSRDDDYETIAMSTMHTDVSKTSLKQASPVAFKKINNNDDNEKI

[10] = target: GPR109A (human) (UniProt Q8TDS4); assay: cell-based or functional assay
[11] = target: NMBR (human) (UniProt P28336); assay: cell-based or functional assay
[12] = target: EDG6 (human) (UniProt O95977); assay: cell-based or functional assay
[13] = target: GCGR (human) (UniProt P47871); assay: cell-based or functional assay
[14] = target: HCRTR2 (human) (UniProt O43614); assay: cell-based or functional assay
[15] = target: VIPR2 (human) (UniProt P41587); assay: cell-based or functional assay
[16] = target: NPY2R (human) (UniProt P49146); assay: cell-based or functional assay
[17] = target: DRD1 (human) (UniProt P21728); assay: cell-based or functional assay
[18] = target: HTR1E (human) (UniProt P28566); assay: cell-based or functional assay
[19] = target: TRHR (human) (UniProt P34981); assay: cell-based or functional assay
[20] = target: GALR2 (human) (UniProt O43603); assay: cell-based or functional assay
[21] = target: HTR2A (human) (UniProt P28223); assay: cell-based or functional assay
Chain of HTR2A (human) (P28223 whole entry): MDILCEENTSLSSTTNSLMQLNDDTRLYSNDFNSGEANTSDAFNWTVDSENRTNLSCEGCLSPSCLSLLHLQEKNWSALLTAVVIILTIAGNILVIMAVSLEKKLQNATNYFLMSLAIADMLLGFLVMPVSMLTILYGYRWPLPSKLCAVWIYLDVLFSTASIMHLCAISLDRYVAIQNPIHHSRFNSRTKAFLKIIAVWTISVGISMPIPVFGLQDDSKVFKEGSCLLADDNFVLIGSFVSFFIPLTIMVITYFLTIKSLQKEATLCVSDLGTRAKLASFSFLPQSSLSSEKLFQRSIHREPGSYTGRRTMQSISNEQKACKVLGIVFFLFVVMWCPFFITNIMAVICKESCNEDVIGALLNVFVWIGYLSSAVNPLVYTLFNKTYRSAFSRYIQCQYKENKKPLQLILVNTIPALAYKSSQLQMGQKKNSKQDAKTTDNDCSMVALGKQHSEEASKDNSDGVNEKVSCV

[22] = target: GRPR (human) (UniProt P30550); assay: cell-based or functional assay
Chain of GRPR (human) (P30550 whole entry): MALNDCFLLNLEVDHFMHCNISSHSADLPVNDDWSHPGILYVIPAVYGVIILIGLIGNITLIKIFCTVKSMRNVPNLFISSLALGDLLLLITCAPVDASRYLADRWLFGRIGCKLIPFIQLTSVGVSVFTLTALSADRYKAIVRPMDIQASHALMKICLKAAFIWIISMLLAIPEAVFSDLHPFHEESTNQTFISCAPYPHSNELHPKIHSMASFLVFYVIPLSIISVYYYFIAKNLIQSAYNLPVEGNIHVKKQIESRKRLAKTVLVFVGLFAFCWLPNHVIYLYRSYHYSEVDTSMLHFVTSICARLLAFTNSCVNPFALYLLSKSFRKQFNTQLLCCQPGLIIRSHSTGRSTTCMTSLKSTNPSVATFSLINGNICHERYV

[23] = target: PTHR1 (human) (UniProt Q03431); assay: cell-based or functional assay
[24] = target: VIPR1 (human) (UniProt P32241); assay: cell-based or functional assay
[25] = target: (CR)R-RAMP2 (human) (UniProt P30988); assay: cell-based or functional assay
[26] = target: PPYR1 (human) (UniProt P50391); assay: cell-based or functional assay
[27] = target: (CR)L-RAMP1 (human) (UniProt Q16602); assay: cell-based or functional assay
[28] = target: ADORA3 (human) (UniProt P0DMS8); assay: cell-based or functional assay
[29] = target: human cloned somatostatin receptor 1 (human) (UniProt P30872); assay: cell-based or functional assay
Chain of human cloned somatostatin receptor 1 (human) (P30872 whole entry): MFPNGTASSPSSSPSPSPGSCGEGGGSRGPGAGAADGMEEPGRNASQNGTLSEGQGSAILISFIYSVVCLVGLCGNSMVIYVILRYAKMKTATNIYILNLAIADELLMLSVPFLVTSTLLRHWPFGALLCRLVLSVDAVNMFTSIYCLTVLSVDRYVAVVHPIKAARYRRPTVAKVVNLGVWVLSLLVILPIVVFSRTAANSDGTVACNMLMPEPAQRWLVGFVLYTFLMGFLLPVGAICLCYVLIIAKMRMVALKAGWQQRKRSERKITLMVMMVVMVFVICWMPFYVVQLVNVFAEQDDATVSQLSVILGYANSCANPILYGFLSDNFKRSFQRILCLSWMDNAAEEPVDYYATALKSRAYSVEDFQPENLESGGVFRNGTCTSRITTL

[30] = target: HRH1 (human) (UniProt P35367); assay: cell-based or functional assay
[31] = target: DRD4 (human) (UniProt P21917); assay: cell-based or functional assay
[32] = target: (CR)L-RAMP2 (human) (UniProt Q16602); assay: cell-based or functional assay
[33] = target: OPRL1 (human) (UniProt P41146); assay: cell-based or functional assay
[34] = target: FPR1 (human) (UniProt P21462); assay: cell-based or functional assay
[35] = target: CRHR2 (human) (UniProt Q13324); assay: cell-based or functional assay
[36] = target: CHRM4 (human) (UniProt P08173); assay: cell-based or functional assay
Chain of CHRM4 (human) (P08173 whole entry): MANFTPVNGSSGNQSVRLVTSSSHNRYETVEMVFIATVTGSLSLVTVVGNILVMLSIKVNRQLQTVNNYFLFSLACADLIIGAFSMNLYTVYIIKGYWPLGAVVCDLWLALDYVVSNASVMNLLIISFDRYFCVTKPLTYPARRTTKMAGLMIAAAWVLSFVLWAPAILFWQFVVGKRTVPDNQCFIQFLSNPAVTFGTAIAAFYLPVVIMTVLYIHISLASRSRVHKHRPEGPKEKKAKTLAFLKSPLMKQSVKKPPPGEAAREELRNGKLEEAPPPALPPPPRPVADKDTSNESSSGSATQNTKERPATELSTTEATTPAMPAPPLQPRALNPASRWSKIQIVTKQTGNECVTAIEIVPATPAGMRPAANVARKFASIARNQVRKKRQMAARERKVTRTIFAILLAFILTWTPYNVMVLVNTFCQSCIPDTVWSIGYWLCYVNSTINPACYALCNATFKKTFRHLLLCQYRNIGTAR

[37] = target: EDG7 (human) (UniProt Q9UBY5); assay: cell-based or functional assay
Chain of EDG7 (human) (Q9UBY5 whole entry): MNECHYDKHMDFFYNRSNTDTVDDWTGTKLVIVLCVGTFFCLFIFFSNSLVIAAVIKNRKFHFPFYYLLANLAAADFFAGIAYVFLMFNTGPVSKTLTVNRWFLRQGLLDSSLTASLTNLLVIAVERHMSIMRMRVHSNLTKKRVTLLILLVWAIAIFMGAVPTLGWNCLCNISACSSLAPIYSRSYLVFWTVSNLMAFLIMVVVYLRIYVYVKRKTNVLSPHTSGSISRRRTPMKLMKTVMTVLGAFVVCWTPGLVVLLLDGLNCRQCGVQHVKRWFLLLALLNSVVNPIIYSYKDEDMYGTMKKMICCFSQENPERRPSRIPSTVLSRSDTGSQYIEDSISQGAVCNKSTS

[38] = target: CCR3 (human) (UniProt P51677); assay: cell-based or functional assay
[39] = target: P2RY2 (human) (UniProt P41231); assay: cell-based or functional assay
Chain of P2RY2 (human) (P41231 whole entry): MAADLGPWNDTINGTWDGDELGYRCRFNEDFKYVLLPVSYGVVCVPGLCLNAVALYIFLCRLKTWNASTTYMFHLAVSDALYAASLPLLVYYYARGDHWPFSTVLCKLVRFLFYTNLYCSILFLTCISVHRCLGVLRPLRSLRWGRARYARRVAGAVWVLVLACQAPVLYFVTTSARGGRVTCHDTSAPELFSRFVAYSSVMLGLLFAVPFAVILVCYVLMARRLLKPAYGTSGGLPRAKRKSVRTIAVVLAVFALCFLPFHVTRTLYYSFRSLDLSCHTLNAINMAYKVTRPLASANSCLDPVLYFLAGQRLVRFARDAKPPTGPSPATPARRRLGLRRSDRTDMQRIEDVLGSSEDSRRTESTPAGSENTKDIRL

[40] = target: ADRB2 (human) (UniProt P07550); assay: cell-based or functional assay
[41] = target: CRHR1 (human) (UniProt P34998); assay: cell-based or functional assay
[42] = target: AVPR1B (human) (UniProt P47901); assay: cell-based or functional assay
[43] = target: HRH2 (human) (UniProt P25021); assay: cell-based or functional assay
[44] = target: MC4R (human) (UniProt P32245); assay: cell-based or functional assay
[45] = target: EDNRB (human) (UniProt P24530); assay: cell-based or functional assay
[46] = target: DRD2L (human) (UniProt P14416); assay: cell-based or functional assay
[47] = target: MC1R (human) (UniProt Q01726); assay: cell-based or functional assay
[48] = target: MRGPRX1 (human) (UniProt Q96LB2); assay: cell-based or functional assay
[49] = target: TACR2 (human) (UniProt P21452); assay: cell-based or functional assay
[50] = target: CCR10 (human) (UniProt P46092); assay: cell-based or functional assay
[51] = target: PTHR2 (human) (UniProt P49190); assay: cell-based or functional assay
[52] = target: NPBWR1 (human) (UniProt P48145); assay: cell-based or functional assay
[53] = target: CX3CR1 (human) (UniProt P49238); assay: cell-based or functional assay
[54] = target: human cloned somatostatin receptor 3 (human) (UniProt P32745); assay: 125I-Tyr11-SRIF-14 displacement
[55] = target: human cloned somatostatin receptor 1 (human) (UniProt P30872); assay: 125I-Tyr11-SRIF-14 displacement
[56] = target: human cloned somatostatin receptor 5 (human) (UniProt P35346); assay: 125I-Tyr11-SRIF-14 displacement
Chain of human cloned somatostatin receptor 5 (human) (P35346 whole entry): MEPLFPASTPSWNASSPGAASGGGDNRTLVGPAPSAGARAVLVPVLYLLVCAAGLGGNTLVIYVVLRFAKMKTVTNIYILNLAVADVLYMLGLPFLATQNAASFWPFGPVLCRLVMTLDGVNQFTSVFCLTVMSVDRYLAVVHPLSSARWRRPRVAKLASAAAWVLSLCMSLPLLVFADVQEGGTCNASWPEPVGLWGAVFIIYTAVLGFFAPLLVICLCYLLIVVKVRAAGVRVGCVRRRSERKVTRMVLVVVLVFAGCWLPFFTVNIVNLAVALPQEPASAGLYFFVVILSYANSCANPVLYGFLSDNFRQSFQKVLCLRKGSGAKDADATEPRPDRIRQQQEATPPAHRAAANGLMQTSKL

[57] = target: human cloned somatostatin receptor 2 (human) (UniProt P30874); assay: 125I-Tyr11-SRIF-14 displacement
Chain of human cloned somatostatin receptor 2 (human) (P30874 whole entry): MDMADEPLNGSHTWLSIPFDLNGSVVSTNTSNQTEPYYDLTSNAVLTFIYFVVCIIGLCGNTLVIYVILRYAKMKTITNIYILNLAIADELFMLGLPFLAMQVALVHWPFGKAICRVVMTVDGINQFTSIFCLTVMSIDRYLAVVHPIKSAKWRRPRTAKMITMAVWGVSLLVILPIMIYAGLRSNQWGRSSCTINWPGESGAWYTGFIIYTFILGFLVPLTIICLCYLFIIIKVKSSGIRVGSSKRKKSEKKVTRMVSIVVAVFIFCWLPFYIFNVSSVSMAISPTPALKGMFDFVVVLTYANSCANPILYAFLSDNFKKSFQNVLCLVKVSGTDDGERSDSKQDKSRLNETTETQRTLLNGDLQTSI

B1: SEQ ID NO: 4 (peptide)
peptide: {DOTA}-[dF]RCF[dW]KTF[N(2-mercaptoethyl)Gly]-NH2
modifications: disulfide 3-9; also: Ga complex of DOTA
In the case of B1, the % Activity (agonist mode, 1 µM) [1] is reported as -13%, the % Activity (agonist mode, 1 µM) [2] is reported as 2% and the % Activity (agonist mode, 1 µM) [3] is reported as 0%. It also gave a % Activity (agonist mode, 1 µM) [4] of -1%, a % Activity (agonist mode, 1 µM) [5] of -2% and a % Activity (agonist mode, 1 µM) [6] of -7%. It also gave a % Activity (agonist mode, 1 µM) [7] of 0%, a % Activity (agonist mode, 1 µM) [8] of -2% and a % Activity (agonist mode, 1 µM) [9] of -5%. The % Activity (agonist mode, 1 µM) [10] was 0%, the % Activity (agonist mode, 1 µM) [11] was 1% and the % Activity (agonist mode, 1 µM) [12] was 10%. The % Activity (agonist mode, 1 µM) [13] was -2%, the % Activity (agonist mode, 1 µM) [14] was 0% and the % Activity (agonist mode, 1 µM) [15] was -1%. The % Activity (agonist mode, 1 µM) [16] was 1%, the % Activity (agonist mode, 1 µM) [17] was 0% and the % Activity (agonist mode, 1 µM) [18] was 1%. It also gave a % Activity (agonist mode, 1 µM) [19] of 3%, a % Activity (agonist mode, 1 µM) [20] of -4% and a % Activity (agonist mode, 1 µM) [21] of -1%. The % Activity (agonist mode, 1 µM) [22] was 0%, the % Activity (agonist mode, 1 µM) [23] was 0% and the % Activity (agonist mode, 1 µM) [24] was 0%. It also gave a % Activity (agonist mode, 1 µM) [25] of 0%, a % Activity (agonist mode, 1 µM) [26] of 1% and a % Activity (agonist mode, 1 µM) [27] of -1%. For the same binder, the % Activity (agonist mode, 1 µM) [28] was -6%, the % Activity (agonist mode, 1 µM) [29] was 32% and the % Activity (agonist mode, 1 µM) [30] was -1%. The % Activity (agonist mode, 1 µM) [31] was 0%, the % Activity (agonist mode, 1 µM) [32] was 3% and the % Activity (agonist mode, 1 µM) [33] was -3%. It also gave a % Activity (agonist mode, 1 µM) [34] of -1%, a % Activity (agonist mode, 1 µM) [35] of 0% and a % Activity (agonist mode, 1 µM) [36] of -3%. The % Activity (agonist mode, 1 µM) [37] was 0%, the % Activity (agonist mode, 1 µM) [38] was 2% and the % Activity (agonist mode, 1 µM) [39] was 2%. It also gave a % Activity (agonist mode, 1 µM) [40] of 0%, a % Activity (agonist mode, 1 µM) [41] of 0% and a % Activity (agonist mode, 1 µM) [42] of 1%. For the same binder, the % Activity (agonist mode, 1 µM) [43] was -4%, the % Activity (agonist mode, 1 µM) [44] was 0% and the % Activity (agonist mode, 1 µM) [45] was 0%. The % Activity (agonist mode, 1 µM) [46] was -1%, the % Activity (agonist mode, 1 µM) [47] was 1% and the % Activity (agonist mode, 1 µM) [48] was 0%. For the same binder, the % Activity (agonist mode, 1 µM) [49] was -1%, the % Activity (agonist mode, 1 µM) [50] was -2% and the % Activity (agonist mode, 1 µM) [51] was 0%. For the same binder, the % Activity (agonist mode, 1 µM) [52] was 2%, the % Activity (agonist mode, 1 µM) [53] was 0% and the IC50 [54] was 0.001 µM. The IC50 [55] was over 1 µM, the Ki [55] was 0.88 µM and the IC50 [56] was 0.14 µM. The Ki [56] was 0.078 µM, the IC50 [57] was 0.056 µM and the Ki [57] was 0.03 µM.
